Assay: soluble on expression in E. coli; label from the status in PepcDB or PDB records

Sequence | soluble on expression in E. coli
MSLKQRPNVLLIVLDTARARTVLPGLESGLMPTLSRIASDGTTFTDATATAPWTLPSHAGMFTGKYTSSHGVHAGNHIFDPDSEPLASRISNAGYRTAGISGNVWISPEFGFDAGFDEFSMKWDLFWDAPELSSVISNRNTTATGDTILDVFRGQGPVDLLKGTLTTGYAKFLAERHDDGAHHTTSRTVEWLEQNGTEDDPFFYFLNYVEPHLPYEPPAPFLDEYLPDGADPSRVSDLNQDPWQYVAGDQELTDADVEIFKGLYEAELAYLDTQLERLYDTLAEQCILDETAIILVGDHGENIGEHGLMDHQYCLYETLIHVPLVIRYPELFDEEEVSGPVELRDLYPTVTDLAGAEQPADTDVSTHSLVPRDGTVPVRDRAIAEYLVPQPSMDSLREAVESFDEAATRFDRPLRAIKTTDWKFIEAPDDTELYDRDDDPIEWIDVASIHPDICELLGTDLRDELGRLARGTSDSNTISANKKERLEDLGYLQ | not soluble
SGKTSQRKQCDCENPSKPCLSTSIPLRMSSYTFKRPVTKITSHLGNEVRYYQWEETFKKPEQACWQKRLQGLQAYSSAGELLSTSDLAKTLKDLTSTDTVASASDTQAASIDITSVPTLESSSHLANMIPEAGPQILCKEFLVTEQDIINQERKVKIARERLAVALIAHKLASEMETVRGSRKANL | soluble
MFGYRSNVPKVRLTTDRLVVRLVHDRDAWRLADYYAENRHFLKPWEPVRDESHCYPSGWQARLGMINEFHKQGSAFYFGLFDPDEKEIIGVANFSNVVRGSFHACYLGYSIGQKWQGKGLMFEALTAAIRYMQRTQHIHRIMANYMPHNKRSGDLLARLGFEKEGYAKDYLLIDGQWRDHVLTALTTPDWTPGR | not soluble
MSGVKIAFIRHHDLWIKVDGKEKQLTKGEYITGPKWSYDGEWLAYVKGEKQNTLELYRLKDGKKVTPFHSEVSNYQWSPTENIIAFIFTGTLHTFKVEKKNADFENVSAGVGDYAWYPNGKKFLVSSEAHLLPTGWTGAQLYEVQKDAHMNPHKMKHLYALPNEHDDFLALVASGFQWSPDQKWISFLAVPTASWSADSNTLCLVRADGSRFEKVDQMLLNTQWFKWAPANNILAYIEGSGRVALENKHLKVKELPALQQNTFTPKGYVDWDFTWKNDNVIIVSRAKEAGIETPPEKRPLPSLYEIDSTSDEQHRITKPPHRQGDYHPLFMNKSNQLIWIRSDRKKADVWLAHKDGKHEMKWIENIDVPLEHHHHHH | not soluble
MKFAIFVNTTREKALELARELTAWLDARSIDYVFDPQSAKALGCGKWEEKADLSQHCDAFVALGGDGTLLLASHYSRSKPVVGINVGDLGFLTEFSPDEMWVAMDHLVSGNYSIHTRSQLEATLESGESLTSLNDVIFEKGSAARRLPAFTILLDDEMLGSYRADGIIIATSTGSTAYSMSAGGPIIAPKSNVFVITPICPHMLTVRPIVISDDKTIKISVDSQSGEFPLKMDGIQKKLLAPGEVVTVKKSPHHINLVANEKRNYCEILRKKLLWSHEHPTGELEHHHHHH | not soluble
MGHHHHHHSHMEKSAPSIILNHWCVTWQGHHFLCRNLSNIKILNRRNGYTTLDLPLTLGDLTQYRLAHGLSENLMALSPYSWTIPFLVSSSETPGIELLPKVINDFGTPLSLAIKTNLPSIPAHQLLFYIIFLRPSPLTSMSCYARPLSLASTPSTNGLCQSVSVLDNKPGLLITTPLHRDPASGKYTSNVQSPTTFNLFRVLYIKLSGEEGMVSQKVKHLTIDKDSLQEGFLQLCLNMCGVSYETLQCEILLELVQGPTNFIFPAAFPPPVSLPHRNCIELTCDTERCLKPGDVMKLKHRLLYELGQRGDTPQNAFLIVGAHSPETVWISPSLWLPGQPLYINIINLSHKPLLLSRHSILALAIPISYTRAPASAHEATDTTICYSGNSRVLTCGAAHVLEAHFKHPPITSRAITDGGESPMEWQTL | not soluble
MSSNYIYRTAEKSDFDRILKFLAEHFYHEEPSIRASKIALEEWLPIFGEMTTSSLKLPISTVVTTEDGENIVAVLLNSMWSREEDEERMKHGNGKGDHDTSGYSEALQRFMTIVQKCHDEFWNLAPSDVNLVVYREISSVGKPWQRQGIATKMLSRNMSAARLHNVDGIVSATSSFANQTLLAKNGFQCLKEFPYSGIVSSNGDKLVETDDGSHGMRINFKRIEKSGNGPCEMEPPKSATFQNVATSVSS | soluble
MPMLSEEEGGAKIVLEGPKELLDRIVEALKEVYDPEIPVNVYDLGLIYEVRVEGPREKPRIKVKMSLTAIGCPVSVALPAYVEDAIREAVPEAEDVEVEVVFDPPWTPERVTPEGRELLKTIYGYDVVEQWKRAAQQQYGG | soluble
